Experimental findings from the Human Domainome abundance scans (Beltran et al. 2025) are described below.

To fix the notation:
B1: Ras GTPase-activating protein 1, residues 281 to 341; numbered along this chain, P20936 (parent)
chain: RRRVRAILPYTKVPDTDEISFLKGDMFIVHNELEDGWMWVTNLRTDEQGLIVEDLVEEVGR

± gives the uncertainty stated by the source.

This data set covers variants of B1. The data set can be described thus: abundance fitness (aPCA) (normalised: wild type 0, dead -1); higher = more abundant; growth selection in yeast, the domain comes from the species named. The settings on record: Homo sapiens.
With V40R, the abundance fitness is -0.836 ± 0.048.
The figure for V40T is -0.672 ± 0.054; for V40A it is 0.002 ± 0.033.
Take V40D: the abundance fitness was -0.846 ± 0.048.
For E47L the value was -0.417 ± 0.03.
For E47K the value was -0.23 ± 0.049.
The figure for E47V is -0.375 ± 0.027; for E47Q it is -0.135 ± 0.075.
As to E47F, the abundance fitness was -0.841 ± 0.04.
The figure for E47G is -0.684 ± 0.034; for E47M it is -0.257 ± 0.042.
The figure for E47A is -0.254 ± 0.031; for E47W it is -0.94 ± 0.11; for G49Y it is -0.936 ± 0.056.
For G49I the value was -0.874 ± 0.048; for G49A, -0.926 ± 0.065; for G49C, -0.784 ± 0.039.
For G49L, the abundance fitness is -0.847 ± 0.049.
For V59H the value was -0.124 ± 0.03; for V59D, -0.067 ± 0.033.
The figure for V59M is -0.027 ± 0.047.
For the variant V59A, the abundance fitness is -0.027 ± 0.032.
The figure for V59C is -0.041 ± 0.028; for V59F it is -0.106 ± 0.025.
The figure for V59W is -0.137 ± 0.052; for V59G it is -0.176 ± 0.029.
For the variant V59K, the abundance fitness was -0.451 ± 0.079.
For the variant E34F, the abundance fitness is -0.238 ± 0.031.
E34S: the abundance fitness was -0.01 ± 0.028.
For E34N the value was -0.004 ± 0.032; for E34G, -0.035 ± 0.03.
For E34D the value was -0.033 ± 0.034.
With E34R, the abundance fitness was 0.065 ± 0.034.
For R44T the value was -0.319 ± 0.036; for R44V, -0.708 ± 0.047; for R44M, -0.287 ± 0.054.
For R44E the value was -0.442 ± 0.091; for R44N, -0.224 ± 0.03.
The figure for R44Q is -0.314 ± 0.12; for R44P it is -0.9 ± 0.1.
In the case of R44K, the abundance fitness is -0.648 ± 0.076.
The figure for H30K is -0.151 ± 0.065; for H30P it is -0.789 ± 0.061.
For H30V the value was -0.285 ± 0.029.
Regarding H30F, the abundance fitness is -0.39 ± 0.033.
For H30C the value was -0.362 ± 0.028.
Consider H30M, for which the abundance fitness was -0.151 ± 0.049.
For the variant H30Y, the abundance fitness is -0.397 ± 0.034.
For D54F the value was -0.262 ± 0.041.
On to D54N, for which the abundance fitness worked out at 0.013 ± 0.036.
The figure for D54C is -0.042 ± 0.035; for D54P it is -0.175 ± 0.049; for D25Y it is -0.948 ± 0.051.
As for D25I, the abundance fitness is -0.946 ± 0.059.
With D25L, the abundance fitness was -0.852 ± 0.062.
For D25C the value was -0.864 ± 0.047; for D25E, -0.712 ± 0.094.
For D25Q the value was -0.768 ± 0.22; for R5Y, -0.331 ± 0.03.
For the variant R5G, the abundance fitness was -0.796 ± 0.045.
The figure for R5W is -0.531 ± 0.061; for R5A it is -0.354 ± 0.037; for R5M it is -0.025 ± 0.055.
For R5P the value was -0.919 ± 0.074; for R5K, 0.052 ± 0.062; for I19A, -1.14 ± 0.12.
Consider I19K, for which the abundance fitness is -0.934 ± 0.13.
For I19S the value was -0.878 ± 0.042; for I19Q, -1.16 ± 0.23.
As to R61W, the abundance fitness came to 0.07 ± 0.076.
As for R61L, the abundance fitness came out at 0.039 ± 0.037.
The figure for R61P is 0.104 ± 0.046.
The figure for R61Q is 0.044 ± 0.083; for R61K it is 0.108 ± 0.074.
The figure for R61H is 0.012 ± 0.032.
Take R61M: the abundance fitness was -0.031 ± 0.065.
Take R61G: the abundance fitness was found to be 0.034 ± 0.048.
For R61I the value was -0.003 ± 0.029; for R61V, 0.079 ± 0.039.
Take E18K: the abundance fitness is -0.457 ± 0.11.
Regarding E18F, the abundance fitness is -0.498 ± 0.036.
For E18R the value was -0.353 ± 0.034.
For the variant E18Y, the abundance fitness was -0.513 ± 0.037.
With R2N, the abundance fitness was -0.099 ± 0.028.
Regarding R2M, the abundance fitness is -0.053 ± 0.055.
The figure for R2D is -0.179 ± 0.034.
For R2C the value was -0.347 ± 0.03; for R2F, -0.196 ± 0.032.
For R2V the value was -0.232 ± 0.031.
With W37K, the abundance fitness amounted to 0.121 ± 0.037.
For W37Q the value was 0.073 ± 0.042.
For W37H the value was 0.044 ± 0.022; for W37M, 0.006 ± 0.037.
For I7Y the value was -0.366 ± 0.032.
Take I7S: the abundance fitness is -0.236 ± 0.027.
The figure for I7G is -0.735 ± 0.044; for I51Q it is -1.07 ± 0.16; for I51D it is -0.814 ± 0.049.
For I51R the value was -0.786 ± 0.044; for I51A, -0.481 ± 0.034; for E57G, -0.536 ± 0.048.
In the case of E57V, the abundance fitness is -0.107 ± 0.035.
For E57I the value was -0.223 ± 0.034.
For E57S the value was -0.252 ± 0.031; for E57Y, -0.357 ± 0.043; for E57L, -0.368 ± 0.041.
The figure for E57P is -0.848 ± 0.099.
Turning to E57N, the abundance fitness is -0.447 ± 0.047.
Take A6C: the abundance fitness is -0.829 ± 0.027.
Turning to A6V, the abundance fitness is -0.899 ± 0.028.
For A6F, the abundance fitness is -0.919 ± 0.03.
On to A6I, for which the abundance fitness was -0.885 ± 0.031.
The figure for A6P is -1.04 ± 0.05; for A6D it is -0.953 ± 0.035.
The figure for Q48D is -0.038 ± 0.031; for Q48I it is -0.084 ± 0.027.
For Q48F, the abundance fitness is -0.122 ± 0.026.
For Q48T the value was 0.019 ± 0.031; for Q48E, -0.06 ± 0.063.
For Q48C the value was -0.043 ± 0.028.
For Q48A the value was -0.073 ± 0.031.
As to K23S, the abundance fitness is -0.102 ± 0.02.
For K23W the value was -0.482 ± 0.037.
For K23G the value was -0.23 ± 0.025; for K23H, -0.313 ± 0.031; for R3S, -0.136 ± 0.025.
R3T: the abundance fitness is -0.136 ± 0.037.
The figure for R3Q is -0.066 ± 0.06; for R3P it is -0.51 ± 0.04; for R3Y it is -0.045 ± 0.031.
For P9N the value was -0.101 ± 0.031.
The figure for P9Q is -0.091 ± 0.12.
Turning to P9A, the abundance fitness is -0.026 ± 0.039.
For P9R the value was -0.311 ± 0.035.
The figure for P9I is -0.876 ± 0.055.
For P9Y the value was -0.796 ± 0.046; for P9G, -0.059 ± 0.03.
For P9W, the abundance fitness is -0.805 ± 0.095.
For L22A the value was -0.095 ± 0.042; for L22P, -1.15 ± 0.19; for L22H, -0.013 ± 0.041.
On to L22V, for which the abundance fitness is -0.038 ± 0.035.
As for L22Q, the abundance fitness is 0.045 ± 0.13.
The figure for L22N is -0.013 ± 0.034; for L22R it is -0.045 ± 0.032; for T11A it is -0.05 ± 0.035.
Turning to T11F, the abundance fitness is -0.184 ± 0.026.
The figure for T11Q is -0.097 ± 0.084.
The figure for T11K is -0.13 ± 0.067.
On to T11Y, for which the abundance fitness is -0.278 ± 0.029.
For T11R the value was -0.126 ± 0.028; for G36N, -0.149 ± 0.028.
The figure for G36H is -0.161 ± 0.034; for G36L it is -0.6 ± 0.057.
The figure for G36C is -0.664 ± 0.035; for L8P it is -0.99 ± 0.094; for N31P it is -0.841 ± 0.068.
As to N31W, the abundance fitness was -0.043 ± 0.045.
For N31M the value was -0.044 ± 0.051; for N31T, -0.046 ± 0.03.
Consider N31Y, for which the abundance fitness is -0.057 ± 0.029.
The figure for G24N is -0.133 ± 0.033; for G24E it is -0.371 ± 0.052; for G24A it is -0.495 ± 0.034.
For G24H the value was -0.201 ± 0.033; for G24T, -0.881 ± 0.066.
The figure for G24P is -1.04 ± 0.11.
